Data taken from paper PMC7474647 (Proceedings of the National Academy of Sciences of the …, 2020).

Molecular target: the molecule itself
Assay: ABEL trap-based single-molecule diffusometry

B1: alkaline phosphatase from bovine intestinal mucosa, labeled with JF646 (enzyme, UniProt P19111 20-506, looked up)
chain: LVPVEEEDPAFWNRQAAQALDVAKKLQPIQTAAKNVILFLGDGMGVPTVTATRILKGQMNGKLGPETPLAMDQFPYVALSKTYNVDRQVPDSAGTATAYLCGVKGNYRTIGVSAAARYNQCKTTRGNEVTSVMNRAKKAGKSVGVVTTTRVQHASPAGAYAHTVNRNWYSDADLPADAQMNGCQDIAAQLVNNMDIDVILGGGRKYMFPVGTPDPEYPDDASVNGVRKRKQNLVQAWQAKHQGAQYVWNRTALLQAADDSSVTHLMGLFEPADMKYNVQQDHTKDPTLQEMTEVALRVVSRNPRGFYLFVEGGRIDHGHHDDKAYMALTEAGMFDNAIAKANELTSELDTLILVTADHSHVFSFGGYTLRGTSIFGLAPSKALDSKSYTSILYGNGPGYALGGGSRPDVNDSTSEDPSYQQQAAVPQASETHGGEDVAVFARGPQAHLVHGVEEETFVAHIMAFAGCVEPYTDCNLPAPTTATSIPD
modifications: JF646 dye, attached by amine-NHS chemistry (nonspecific labeling; one or two dyes per molecule seen)
Q: With B1 as the protein, how does the “stoichiometry N” value read?
A: 2
